Results published in PMC1557813 (Nucleic Acids Research, 2006).

T1: GST–PAH1 (amino acids 34–108) (mouse (as mSin3b), UniProt Q62141 34-108)
T1 sequence (looked up): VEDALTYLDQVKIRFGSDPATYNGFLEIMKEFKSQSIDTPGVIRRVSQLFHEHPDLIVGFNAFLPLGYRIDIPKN


Biological target: T1, GST–PAH1 (amino acids 34–108)
Assay: pull-down

| Binder | binding result |
| --- | --- |
| SAAMGSAEFEALVALLFLSEE [protG-P1-8 (P1-8 fused to the GB1 domain of streptococcal protein G)] | binds |
| SAAMGSAEFEAAVALLFLSEE [protG-P1-8 Leu12 to alanine] | binds |
| EGDWLFFVLLVGLL [protG-P1-1 (P1-1 fused to the GB1 domain of streptococcal protein G)] | binds |
| SAAMGSAEFEALAALLFLSEE [protG-P1-8 Val13 to alanine] | binds |
| SAAMGSAEAEALVALLFLSEE [protG-P1-8 Phe9 to alanine] | binds |
